Assays:
[1] = biological target: T1, insulin receptor extracellular domain (EC-IR) (UniProt P06213 28-956); assay: filter binding with RT-qPCR
[2] = biological target: T1, insulin receptor extracellular domain …; assay: ELASA

T1 sequence (P06213 28-956): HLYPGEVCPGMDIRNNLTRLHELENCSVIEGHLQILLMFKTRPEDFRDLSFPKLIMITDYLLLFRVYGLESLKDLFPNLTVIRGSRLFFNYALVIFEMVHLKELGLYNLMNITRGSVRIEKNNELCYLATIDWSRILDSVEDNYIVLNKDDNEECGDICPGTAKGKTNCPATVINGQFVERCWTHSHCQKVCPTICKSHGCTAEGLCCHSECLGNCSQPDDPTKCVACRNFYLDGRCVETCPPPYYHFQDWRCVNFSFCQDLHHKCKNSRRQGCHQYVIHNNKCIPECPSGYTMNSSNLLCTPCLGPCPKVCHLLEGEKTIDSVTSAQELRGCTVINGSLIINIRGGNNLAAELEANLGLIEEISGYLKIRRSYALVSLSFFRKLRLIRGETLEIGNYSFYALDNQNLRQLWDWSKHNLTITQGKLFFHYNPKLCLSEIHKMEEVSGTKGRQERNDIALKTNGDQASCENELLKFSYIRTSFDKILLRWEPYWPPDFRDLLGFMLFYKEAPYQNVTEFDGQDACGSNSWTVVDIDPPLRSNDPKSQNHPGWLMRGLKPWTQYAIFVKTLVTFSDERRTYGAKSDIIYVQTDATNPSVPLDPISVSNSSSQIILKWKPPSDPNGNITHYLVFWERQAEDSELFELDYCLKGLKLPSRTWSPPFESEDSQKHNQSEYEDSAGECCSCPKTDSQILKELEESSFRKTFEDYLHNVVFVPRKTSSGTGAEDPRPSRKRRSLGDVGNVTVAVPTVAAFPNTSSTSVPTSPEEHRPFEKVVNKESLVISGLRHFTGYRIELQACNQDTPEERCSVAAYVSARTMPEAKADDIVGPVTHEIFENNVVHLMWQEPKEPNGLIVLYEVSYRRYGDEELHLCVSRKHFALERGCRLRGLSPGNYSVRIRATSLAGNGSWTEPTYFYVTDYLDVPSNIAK

B1: GL56 (seq5/Gi-2) (XNA)
RNA: GGAGACAAGAAUAAACGCUCAAUGAUUUUGCAGCACUUCUUGUUAUCUUAACGAACUGUUGAUGAUUCGACAGGAGGCUCACAACAGGC
modifications: 2'-fluoro pyrimidines (all C and U), RNA purines
binding result [1]: binds

B2: GL56 5'-biotin (printed as GL56.T in ELASA methods) (XNA)
RNA: B1 RNA
modifications: 2'-fluoro pyrimidines (all C and U), RNA purines
binding result [2]: binds
